Patent US20230293647A1

Legend:
[1] = target: recombinant full length SARS-CoV-2 spike protein (SARS-CoV-2) (UniProt P0DTC2)
[2] = target: FcγR on K562 cells (reported to express RNA for FcγRIIa and IIIa/b)

In the case of “ACE2-CR3022 scFv-Fc (from UniProt Q9BYF1 18-740) (Fc fusion)”, the EC50 (read off the curve) [1] is reported as 0.09 nM.
With “CR3022 scFv-ACE2-Fc (from UniProt Q9BYF1 18-740) (Fc fusion)” the EC50 (read off the curve) [1] was 0.06 nM.
“Inactive ACE2 (HH:NN) (18-740)-Fc (Fc fusion)” showed an EC50 (read off the curve) [2] of 40 nM.
